According to patent US20040091887:

T1: bovine fibrinogen, P02672
T1 chain 1: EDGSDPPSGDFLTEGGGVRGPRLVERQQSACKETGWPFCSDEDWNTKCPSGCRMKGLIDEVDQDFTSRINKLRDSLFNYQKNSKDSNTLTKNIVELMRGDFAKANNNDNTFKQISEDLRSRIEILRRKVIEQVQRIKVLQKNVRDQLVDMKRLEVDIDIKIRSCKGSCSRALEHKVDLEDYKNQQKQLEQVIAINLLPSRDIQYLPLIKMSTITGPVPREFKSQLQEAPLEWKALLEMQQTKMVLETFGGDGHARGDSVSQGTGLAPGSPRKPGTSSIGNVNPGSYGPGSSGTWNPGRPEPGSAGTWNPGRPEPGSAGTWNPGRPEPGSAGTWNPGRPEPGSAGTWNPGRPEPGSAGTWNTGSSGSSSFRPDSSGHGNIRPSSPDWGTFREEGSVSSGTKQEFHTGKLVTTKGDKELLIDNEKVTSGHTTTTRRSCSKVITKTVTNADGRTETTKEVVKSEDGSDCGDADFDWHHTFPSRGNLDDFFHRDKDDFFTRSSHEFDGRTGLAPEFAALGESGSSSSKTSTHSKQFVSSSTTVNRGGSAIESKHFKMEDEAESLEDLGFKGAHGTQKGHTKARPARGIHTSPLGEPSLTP
T1 chain 2: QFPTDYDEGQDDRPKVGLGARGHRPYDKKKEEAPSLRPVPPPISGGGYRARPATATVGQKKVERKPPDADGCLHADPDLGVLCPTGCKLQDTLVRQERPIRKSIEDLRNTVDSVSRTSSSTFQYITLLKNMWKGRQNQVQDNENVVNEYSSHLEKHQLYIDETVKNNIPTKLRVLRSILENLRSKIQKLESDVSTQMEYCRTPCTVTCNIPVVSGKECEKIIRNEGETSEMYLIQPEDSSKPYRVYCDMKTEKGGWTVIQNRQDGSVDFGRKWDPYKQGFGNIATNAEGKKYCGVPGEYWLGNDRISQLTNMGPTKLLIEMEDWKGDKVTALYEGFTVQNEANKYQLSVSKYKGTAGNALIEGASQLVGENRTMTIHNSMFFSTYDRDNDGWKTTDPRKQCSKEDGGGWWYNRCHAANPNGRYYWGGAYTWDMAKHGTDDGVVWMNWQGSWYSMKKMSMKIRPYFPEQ
T1 chain 3: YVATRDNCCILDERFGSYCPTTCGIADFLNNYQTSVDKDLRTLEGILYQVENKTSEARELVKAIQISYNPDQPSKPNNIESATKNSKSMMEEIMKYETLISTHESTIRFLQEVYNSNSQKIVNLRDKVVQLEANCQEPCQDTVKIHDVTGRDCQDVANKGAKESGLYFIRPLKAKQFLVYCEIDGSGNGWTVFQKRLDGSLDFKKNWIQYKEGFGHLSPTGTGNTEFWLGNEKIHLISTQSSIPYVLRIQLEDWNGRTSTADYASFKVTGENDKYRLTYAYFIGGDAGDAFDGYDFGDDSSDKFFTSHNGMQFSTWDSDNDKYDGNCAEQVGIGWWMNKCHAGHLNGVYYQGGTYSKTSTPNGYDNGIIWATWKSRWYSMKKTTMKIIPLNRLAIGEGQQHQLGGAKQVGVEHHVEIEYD

B1: Mucroslysin recombinant fusion protein (protein)
chain: SSIILESGNVNDYEVVYPRKVSALPKGAVQPKYEDAMQYEFKVNGEAVVLHLEKNKGLFSEDYSETHYSPDGREITTYPSVEDHCYYHGRIHNDADSTASISACDGLKGYFKLQGETYPIEPLELSDSEAHAVFKYENVEKEDEAPKMCGVTQNWESDESIKKASQLYLTPEQQRFPQRYIKLAIVVDHGMYTKYSSNFKKIRKRVHQMVSNINEMCRPLNIAITLALLDVWSEKDFITVQADAPTTAGLFGDWRERVLLKKKNHDHAQLLTDTNFARNTIGWAYVGRMCDEKYSVAVVKDHSSKVFMVAVTMTHELGHNLGMEHDDKDKCKCDTCIMSAVISDKQSKLFSDCSKDYYQTFLTNDNPQCILNAPLRTDTVSTPVSGNEFLEAGEECDCGSPENPCCDAATCKLRPGAQCAEGLCCDQCRFKKKRTICRRARGDNPDDRCTGQSADCPRNGLYG
B2: recombinant fibrinlysin protein (protein)
chain: EQQRFPQRYIKLAIVVDHGMYTKYSSNFKKIRKRVHQMVSNINEMCRPLNIAITLALLDVWSEKDFITVQADAPTTAGLFGDWRERVLLKKKNHDHAQLLTDTNFARNTIGWAYVGRMCDEKYSVAVVKDHSSKVFMVAVTMTHELGHNLGMEHDDKDKCKCDTCIMSAVISDKQSKLFSDCSKDYYQTFLTNDNPQCILNAP

Target: T1, bovine fibrinogen, P02672

Row | Protein | fibrinogenolytic assay, cleavage pattern on 10% SDS-PAGE: cleavage of the gamma chain | fibrinogenolytic assay, cleavage pattern on 10% SDS-PAGE: start of digestion of the B beta chain | fibrinogenolytic assay, cleavage pattern on 10% SDS-PAGE: time to complete digestion of the A alpha chain | fibrinogenolytic assay, cleavage pattern on 10% SDS-PAGE: time to complete digestion of the B beta chain | dose-dependent fibrinogenolytic assay in vitro: amount for complete digestion of the A alpha chain | dose-dependent fibrinogenolytic assay in vitro: amount for complete digestion of the B beta chain | dose-dependent fibrinogenolytic assay in vitro: amount for complete digestion of the gamma chain | time-dependent fibrinogenolytic assay in vitro: time to complete digestion of the A alpha chain | time-dependent fibrinogenolytic assay in vitro: time to complete digestion of the B beta chain | time-dependent fibrinogenolytic assay in vitro: time to complete digestion of the gamma chain
1 | B1 | Mucroslysin protein also exhibited the ability to cleave the γ-chain of fibrinogen | the digestion of the Bβ-chain began at 18 hr | The Aα-chain of fibrinogen was completely digested at 18 hr after incubation | The Bβ-chain was completely digested after 36 hrs | – | – | – | – | – | –
2 | B2 | – | – | – | – | the Aα-chain of fibrinogen was completely digested with 4 µg of the refolded protein | The Bβ-chain was completely digested with 7 µg of the refolded protein | The γ-chain also was completely digested with 21 µg of the refolded protein | the Aα-chain of fibrinogen was completely digested at 5 hr after incubation | The Bβ-chain was completely digested after 7 hrs | the γ-chain was completely digested after 30 hrs
